Measurements as given in the supplement of paper PMC9112550, “Optimization of the antimicrobial peptide Bac7 by deep mutational scanning” (BMC Biology, 2022).

test system: Escherichia coli TOP10; assay: shrunken log2 fold change of peptide-encoding DNA abundance (4.5 h post-induction vs induction); higher = less antimicrobial activity (less host growth inhibition); conditions: time post-induction: 4.5 h; library: site-saturation at positions 5, 18, 19, 20
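Further: peptides expressed intracellularly from a pBAD plasmid library in pooled LB shake-flask culture, induced with 0.3% L-arabinose, DNA abundance read by NGS, three biological replicates, DESeq2 with apeglm shrinkage.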

Point of comparison: RRIRIRPPRLPRPRPRPMVNPRP, “shrunken log2 fold change” value -0.294. Against it:
- RRIRMRPPRLPRPRPRPILSPRP — higher, 0.00774
- RRIRWRPPRLPRPRPRPNITPRP — within 0.2 log units, -0.161
- RRIRFRPPRLPRPRPRPQKYPRP — lower, -0.864
- RRIRERPPRLPRPRPRPELQPRP — higher, -0.0137
- RRIRRRPPRLPRPRPRPAWCPRP — higher, 0.568
- RRIRVRPPRLPRPRPRPPWMPRP — higher, -0.0435
- RRIRMRPPRLPRPRPRPTFAPRP — higher, 0.573
- RRIRGRPPRLPRPRPRPSLPPRP — higher, 0.178
- RRIRQRPPRLPRPRPRPMSRPRP — higher, -0.0221
- RRIRNRPPRLPRPRPRPTFSPRP — within 0.2 log units, -0.269
- RRIRIRPPRLPRPRPRPICKPRP — within 0.2 log units, -0.199
- RRIRSRPPRLPRPRPRPSGLPRP — higher, 0.177
- RRIRQRPPRLPRPRPRPWTEPRP — higher, 0.0355
- RRIRARPPRLPRPRPRPCNIPRP — lower, -0.671
- RRIRERPPRLPRPRPRPKLDPRP — higher, -0.052
- RRIRTRPPRLPRPRPRPPHIPRP — within 0.2 log units, -0.471
- RRIRMRPPRLPRPRPRPCFKPRP — higher, 0.145
- RRIRARPPRLPRPRPRPDEFPRP — higher, 0.331
- RRIRHRPPRLPRPRPRPSHTPRP — within 0.2 log units, -0.248
- RRIRWRPPRLPRPRPRPQFFPRP — within 0.2 log units, -0.134
- RRIRYRPPRLPRPRPRPDMRPRP — higher, -0.00508
- RRIRKRPPRLPRPRPRPGSLPRP — higher, -0.0469
- RRIRYRPPRLPRPRPRPADQPRP — higher, -0.0819
- RRIRMRPPRLPRPRPRPKSLPRP — higher, 0.171
- RRIRERPPRLPRPRPRPVLMPRP — higher, 0.0559
- RRIRERPPRLPRPRPRPFYWPRP — within 0.2 log units, -0.158
- RRIRERPPRLPRPRPRPLMVPRP — lower, -0.498
- RRIRKRPPRLPRPRPRPLPPPRP — higher, 1.01
- RRIRVRPPRLPRPRPRPQNCPRP — within 0.2 log units, -0.205
- RRIRKRPPRLPRPRPRPPKEPRP — higher, 0.944
- RRIRIRPPRLPRPRPRPSCKPRP — within 0.2 log units, -0.122
- RRIRHRPPRLPRPRPRPTIFPRP — higher, -0.0675
- RRIRKRPPRLPRPRPRPLANPRP — higher, 0.029
- RRIRMRPPRLPRPRPRPWWNPRP — higher, 0.045
- RRIRMRPPRLPRPRPRPKYMPRP — higher, 0.00659
- RRIRERPPRLPRPRPRPGDPPRP — higher, 0.103
- RRIRHRPPRLPRPRPRPIFCPRP — within 0.2 log units, -0.184
- RRIRVRPPRLPRPRPRPCRCPRP — within 0.2 log units, -0.239
- RRIRNRPPRLPRPRPRPQVAPRP — higher, 0.14
- RRIRSRPPRLPRPRPRPHSGPRP — higher, 0.0329
- RRIRMRPPRLPRPRPRPRRTPRP — higher, 1.76
- RRIRHRPPRLPRPRPRPACLPRP — within 0.2 log units, -0.221
- RRIRWRPPRLPRPRPRPQWQPRP — higher, 0.0209
- RRIRFRPPRLPRPRPRPRCQPRP — higher, 0.24
- RRIRFRPPRLPRPRPRPHEMPRP — higher, -0.0108
- RRIRTRPPRLPRPRPRPSRMPRP — higher, -0.0328
- RRIRYRPPRLPRPRPRPKDKPRP — lower, -0.536
- RRIRLRPPRLPRPRPRPVWHPRP — higher, -0.047
- RRIRLRPPRLPRPRPRPMVDPRP — higher, -0.00377
- RRIRMRPPRLPRPRPRPIFYPRP — within 0.2 log units, -0.106
- RRIRVRPPRLPRPRPRPEHMPRP — higher, -0.0512
- RRIRERPPRLPRPRPRPQLLPRP — within 0.2 log units, -0.324
- RRIRYRPPRLPRPRPRPLTRPRP — higher, -0.0623
- RRIRERPPRLPRPRPRPAGVPRP — higher, 0.157
- RRIRGRPPRLPRPRPRPEDIPRP — higher, 0.165
- RRIRRRPPRLPRPRPRPSSNPRP — within 0.2 log units, -0.148
- RRIRERPPRLPRPRPRPRVIPRP — higher, 0.0506
- RRIRGRPPRLPRPRPRPFEQPRP — higher, 0.618
- RRIRKRPPRLPRPRPRPEFEPRP — higher, 1.34
- RRIRWRPPRLPRPRPRPVDRPRP — higher, -0.0331
- RRIRPRPPRLPRPRPRPAFGPRP — higher, 0.45
- RRIRWRPPRLPRPRPRPTSIPRP — within 0.2 log units, -0.22
- RRIRPRPPRLPRPRPRPEVSPRP — higher, 0.0949
- RRIRWRPPRLPRPRPRPGFVPRP — higher, 0.291
- RRIRVRPPRLPRPRPRPGSQPRP — within 0.2 log units, -0.11
- RRIRGRPPRLPRPRPRPNAHPRP — higher, 0.754
- RRIRSRPPRLPRPRPRPVINPRP — within 0.2 log units, -0.106
- RRIRNRPPRLPRPRPRPFGPPRP — within 0.2 log units, -0.406
- RRIRKRPPRLPRPRPRPRHIPRP — higher, -0.0145
- RRIRERPPRLPRPRPRPHYIPRP — within 0.2 log units, -0.133
- RRIRLRPPRLPRPRPRPPNNPRP — within 0.2 log units, -0.106
- RRIRTRPPRLPRPRPRPYVPPRP — within 0.2 log units, -0.1
- RRIRLRPPRLPRPRPRPVAGPRP — higher, 0.0563
- RRIRQRPPRLPRPRPRPGMLPRP — higher, 0.105
- RRIRIRPPRLPRPRPRPYVQPRP — within 0.2 log units, -0.311
- RRIRKRPPRLPRPRPRPLHYPRP — higher, -0.00227
- RRIRVRPPRLPRPRPRPLHPPRP — higher, 0.149
- RRIRCRPPRLPRPRPRPLVCPRP — higher, -0.0544
- RRIRTRPPRLPRPRPRPQRLPRP — within 0.2 log units, -0.223
- RRIRERPPRLPRPRPRPMDTPRP — lower, -0.501
- RRIRQRPPRLPRPRPRPHVQPRP — within 0.2 log units, -0.46
- RRIRMRPPRLPRPRPRPIYSPRP — higher, -0.0833
- RRIRVRPPRLPRPRPRPKNLPRP — higher, 0.0256
- RRIRFRPPRLPRPRPRPWSMPRP — lower, -0.548
- RRIRMRPPRLPRPRPRPRHPPRP — higher, 0.617
- RRIRLRPPRLPRPRPRPCNRPRP — higher, 0.214
- RRIRERPPRLPRPRPRPVWMPRP — higher, -0.0846
- RRIRKRPPRLPRPRPRPRHLPRP — higher, 0.218
- RRIRHRPPRLPRPRPRPFQKPRP — higher, 0.00797
- RRIRSRPPRLPRPRPRPHKDPRP — lower, -0.534
- RRIRVRPPRLPRPRPRPYNSPRP — within 0.2 log units, -0.0974
- RRIRQRPPRLPRPRPRPWQRPRP — higher, -0.0557
- RRIRYRPPRLPRPRPRPNASPRP — higher, -0.088
- RRIRRRPPRLPRPRPRPMDEPRP — higher, 0.0223
- RRIRSRPPRLPRPRPRPSNAPRP — within 0.2 log units, -0.276
- RRIRQRPPRLPRPRPRPMLAPRP — higher, 0.0967
- RRIRHRPPRLPRPRPRPMQKPRP — higher, -0.0124
- RRIRDRPPRLPRPRPRPRFHPRP — within 0.2 log units, -0.239
- RRIRNRPPRLPRPRPRPKDGPRP — higher, -0.00992
- RRIRHRPPRLPRPRPRPWYEPRP — lower, -1.06
- RRIRQRPPRLPRPRPRPAKSPRP — higher, -0.0281
- RRIRCRPPRLPRPRPRPEMVPRP — higher, -0.0828
- RRIRTRPPRLPRPRPRPNFMPRP — within 0.2 log units, -0.401
- RRIRWRPPRLPRPRPRPVDQPRP — higher, 0.168
- RRIRKRPPRLPRPRPRPIKFPRP — within 0.2 log units, -0.131
- RRIRYRPPRLPRPRPRPYMLPRP — lower, -1.3
- RRIRDRPPRLPRPRPRPRFRPRP — higher, 0.951
- RRIRSRPPRLPRPRPRPIVSPRP — higher, 0.0431
